Assay results published in patent US20210130437A1.

Target: human PD-1 and human TIGIT co-expressed on Jurkat cells (Jurkat/PD-1/TIGIT cells) (human)
Experiment: flow cytometry, Jurkat/PD-1/TIGIT cells

Chain of human PD-1 and human TIGIT co-expressed on Jurkat cells (Jurkat/PD-1/TIGIT cells) (human) (chain, as listed by the source, chain 1 of 2): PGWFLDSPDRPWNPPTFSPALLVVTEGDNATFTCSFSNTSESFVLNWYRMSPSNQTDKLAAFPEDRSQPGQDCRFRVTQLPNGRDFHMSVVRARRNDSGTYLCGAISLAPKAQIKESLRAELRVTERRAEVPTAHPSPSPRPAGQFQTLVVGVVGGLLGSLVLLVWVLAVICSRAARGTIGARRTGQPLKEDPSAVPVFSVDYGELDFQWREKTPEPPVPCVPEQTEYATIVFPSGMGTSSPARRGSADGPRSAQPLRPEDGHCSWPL
Chain of human PD-1 and human TIGIT co-expressed on Jurkat cells (Jurkat/PD-1/TIGIT cells) (human) (chain, as listed by the source, chain 2 of 2): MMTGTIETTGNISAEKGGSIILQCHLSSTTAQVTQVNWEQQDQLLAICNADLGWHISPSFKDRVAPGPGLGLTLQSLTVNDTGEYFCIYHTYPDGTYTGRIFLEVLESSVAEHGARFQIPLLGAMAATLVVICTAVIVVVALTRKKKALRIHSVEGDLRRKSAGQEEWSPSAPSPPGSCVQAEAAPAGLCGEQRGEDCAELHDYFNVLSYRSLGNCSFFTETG

B1: variant CD155 IgV-Fc P18S/S65W/S67A/L104Q/G111R (Fc fusion)
chain: WPPPGTGDVVVQAPTQVSGFLGDSVTLPCYLQVPNMEVTHVSQLTWARHGESGSMAVFHQTQGPWYAESKRLEFVAARLGAELRNASLRMFGLRVEDEGNYTCQFVTFPQRSRSVDIWLRVLAAAEPKSSDKTHTCPPCPAPELLGGPSVFLFPPKPKDTLMISRTPEVTCVVVDVSHEDPEVKFNWYVDGVEVHNAKTKPCEEQYGSTYRCVSVLTVLHQDWLNGKEYKCKVSNKALPAPIEKTISKAKGQPREPQVYTLPPSREEMTKNQVSLTCLVKGFYPSDIAVEWESNGQPENNYKTTPPVLDSDGSFFLYSKLTVDKSRWQQGNVFSCSVMHEALHNHYTQKSLSLSPGK
  MFI at 6.25 nM: 4890 MFI
